Laboratory results from the domain aggregation screens of Martell et al. (2025).

Assay: soluble fraction after stress (log2 fold change); higher = more stays soluble; pooled small domains, quantitative proteomics
Details: stress: 75 degC
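Also: 20 min heating vs room temperature control held 20 min.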

Sequence	soluble fraction (log2)
HMDAVKKKVQSTNTLLDVLKQMLPQTSSNTLRKMLTNQRITVDGETIHRAKHTVEKDQTVEIHPKP	0.215
HMDAVSYTQFMQDAKAGRIKKVIVHQSGILDVTTTEGRRFNLTSPGDLWMVGDLVKDGVDVVGAP	-0.234
HMDAVTYAKGSSGETVREIQQLLLDWGYYSGEVDGIFGSRTEDAVEYFQRKNGLTVDGKVGPATLEALGIS	-0.0808
HMDAYMIGHNIAKWRKEKGMTQDQLAEHLSVSGQAVSKWENGASLPDIAILPKLAEIFDVTMDQLFSR	0.0534
HMDDAIAEKTGGAVSSVNQRQAILDHIREAYGIELESLRSTDIERYLDDPEIPEPVKDILRDRLRGAK	0.204
HMDDDAELLLKKLSAAGGELPFHDRSEPAEIEAAFGLSKSAFKRALGKLLKAGKVVKTQQGIQLK	0.162
HMDDDIKNALDVLPEQYRMTVYYADVEGLAYKEIGAIMNTPIGTVMSRIHRGRSQLRVLLAAVAADR	0.316
HMDDFITLVIHTPAHAQNLRNILESHGMEVRLEDFVSFKSPVAVAQRVKIRPKDLPLALKIIESGE	0.19
HMDDFVEIDGKKYEIDMSFDNILRLFDLLKDKSLNDVTKIETGLIMLIDDSLDDYDTEEKADIFVQIF	-0.411
HMDDGALQIRLGPQALQQRLDKLGYSLNKEDLDLVYQYFLHSADSKGAVYDQELRELMGEAGVE	-0.102
HMDDIHTFVYETETPFDPQKLDRYIGSLTAVYGQDMLRYKGILYFAGVDRRVVFQGVHMLAV	-0.0939
HMDDILAYEIEDKEDLENLSLGKSIGINLNKLIKPTLNSFDNSLLFLSKKGNIISYGKLNGDLFKPKKVL	0.346
HMDDINVSNSKNIVPNVTGHTGSKAIPVLENLGLDVQYSGFGKVTNQSIPAGTRFKKGETIYLMLE	0.03
HMDDIVFPNPTKNQINVSIDGLKNIYNLSGKLLISTNDKIIDVSILKAGVYFINTNEQFYKFVK	-1.41
HMDDIVPHSTKNHIIKTFLSLMNSLDIITDKNKKSLNQNVHIIFNKFNFSKKEANLFIGVLNRIQKALK	0.602
HMDDLFGNAIEMFNNQRYDMTYELLVQLLSETPNNEKAWQLLADTKFMLGDYDDALHIVGKAAK	-1.05
HMDDPWHNLANAIVAVAADDYRSALRNEDEGLLKSLELFFHSEWYRILTDVDADRLLGMLRRERS	-1.71
HMDDTPLNNVIKKIAALPENITLADKSAVLSAWEAYQALSVNLKAQVSNSELLIKAYETILQLEGEDQIK	0.437
HMDDYRIEDMMTVVEEQVIRQKETNLSWFFKRAGSLNEIITIFLAALELIKVHRVYVKQEHNFDDIILRKE	0.305
HMDEAAGVLTQLRAFIAASNLSPGLRLPPERELAEQLGVTRAELRKALAVLEAEGLLWRQVGKGTFYGARP	-1.35
HMDEAEELYQAVQALKPKYREVILLHYYQGLRVGEIAAILRAPQSTVSIRLRRARQMLNRMLG	-0.701
HMDEALLRATLLDVLVKHHPKIGDKLDVVFALAKAWVSSGSDDDFEVLEKYMERLKPDEALMLASGFSNML	-0.886
HMDEDTWKLYKRAYKKYYARYMKGNMSEAAFKAWGEQAAADRDAAIEQLRATTDAALSASIIQQLKEKLNR	-0.995
HMDEEDVLNELIRRLALTADDRLLLSLSYEDGLSSRKIATLLETSAATVQRRLAGLHHQLEQALRVMGLA	-0.323
HMDEEGDALDREYEDQIRLGDEAFDAEDWTSAQRAYTAALELRPDERYPKNRLRRLASLQEDV	0.245
HMDEETVALQKAIHSLPPKQQAVFNMRYYDEMSFREIADANETTESSAKANYHFAKAKIIEQMKR	0.113
HMDEILHHPSYRAIYEYMLDHKHVKTKDIAALLNVKEPRARQLLKEMIDKHFIIALGSNRNREYELL	-0.94
HMDEKSGWLHLAPHEGALRAALYAEHAVQEERTAPDGSQWLRLVLREKHYHQIQSKYNRRLTLHTQPDPS	-2.58
HMDENDPYEILEIDRLASDDQVKAKYRALIRENHPDVLMAKGVPQEFIDLANRKMAVINAAYDRIEKEREF	0.122
HMDEPGAGYKWREDVLLRVMASHGIEESLRDDFVRHAVGFDNDDNMYLKKVEIENAAAAWVAN	-0.359
